This note sets out measurements from paper PMC9277520.

Common to all, as to experiment: SEC; BV-bound protein on a Superdex 200 10/300 GL column, absorbance at 280, 380 and 630 nm, calibrated with a standard protein mixture; self-association (monomer or tetramer)
On the technique in general: SEC sorts molecules by how far they enter the pores of the column.

Assay [1] concerns the target wild-type Sandercyanin (SFP) (Stizostedion vitreum (Canadian walleye)).
Assay [2] addresses Sandercyanin Y142A variant (Stizostedion vitreum (Canadian walleye)).
Assay [3] deals with Sandercyanin F106A variant (Stizostedion vitreum (Canadian walleye)).
In assay [4] the target is Sandercyanin H108A variant (Stizostedion vitreum (Canadian walleye)).
Assay [5] addresses Sandercyanin F55A variant (Stizostedion vitreum (Canadian walleye)).

In the case of “wild-type Sandercyanin (SFP) (natural protein)”, in assay [1], the stoichiometry N (in general, the number of molecules, sites or subunits per partner or assembly) stood at 4.

With “Sandercyanin Y142A variant (natural protein)”, in assay [2], the stoichiometry N worked out at 4.

On to “Sandercyanin F106A variant (natural protein)”, for which the stoichiometry N in assay [3] is 4.

For the substance “Sandercyanin H108A variant (natural protein)”, the stoichiometry N in assay [4] was determined as 4.

Take “Sandercyanin F55A variant (natural protein)”: in assay [5], the stoichiometry N turned out to be 4.
